Measured values reported in patent publication US20240138384A1.

Target: humanized CD47 polypeptide on red blood cells from humanized CD47 mice (human extracellular and transmembrane portions with mouse signal peptide portion and mouse intracytoplasmic tail) (UniProt Q08722)
Test: flow cytometry on RBCs from humanized CD47 mice, isotype control (baseline)

UniProt Q08722, sequence (Q08722 other isoform, or with tags, fused parts or gaps limits assumed): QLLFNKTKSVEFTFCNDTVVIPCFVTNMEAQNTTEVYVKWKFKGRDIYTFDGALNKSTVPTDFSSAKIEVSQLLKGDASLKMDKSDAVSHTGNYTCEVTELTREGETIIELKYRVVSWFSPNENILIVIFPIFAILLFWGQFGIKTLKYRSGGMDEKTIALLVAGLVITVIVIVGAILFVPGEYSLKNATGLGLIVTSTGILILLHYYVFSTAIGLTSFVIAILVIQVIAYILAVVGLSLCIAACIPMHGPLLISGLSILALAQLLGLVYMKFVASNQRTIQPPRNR

Control, hIgG4 (antibody)
MFI: 112 MFI

Control, hIgG4s (antibody)
MFI: 112 MFI
